From US20100129815

Columns and labels:
[1] = target: T1, GST-MLC2a fusion protein, Q9QVP4
T1 chain: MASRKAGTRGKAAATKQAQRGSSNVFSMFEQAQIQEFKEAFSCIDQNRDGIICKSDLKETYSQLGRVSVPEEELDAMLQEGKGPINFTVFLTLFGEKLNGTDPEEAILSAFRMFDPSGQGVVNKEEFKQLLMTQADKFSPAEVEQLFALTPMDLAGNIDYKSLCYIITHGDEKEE

[2] = target: T2, GST-MLC2v fusion protein, P08733
T2 chain: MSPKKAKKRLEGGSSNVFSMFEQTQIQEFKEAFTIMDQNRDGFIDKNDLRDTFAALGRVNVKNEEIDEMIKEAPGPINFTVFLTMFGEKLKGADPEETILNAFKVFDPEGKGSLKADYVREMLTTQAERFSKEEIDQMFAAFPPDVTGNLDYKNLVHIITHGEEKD

B1: HA-tagged full length cardiac MLCK (protein)
chain: MYPYDVPDYASGVSEEDPEGLAPQGLPALGGACLATMDKKLNVLTEKVDRLLHFQEDVTEKLQCVCQGMDHLEQDLHRLEASRELSLAGSGSTPPTTAQAAWPEVLELVRAVRQEGAQHGARLEALFKMVVAVDRAITLVGSTFQNSKVADFIMQGTVPGRKGSLADGPEENKEQAEVAGVKPNHVLTTGGVQADASRTLWEESQKEDIPVRTVEGLPLIINTSLKGADLTQAGASLRQGVEVLGPGQVPLPTEAESRLPETASENTGATLELSVAIDRISEVLTSLKMSQGGGQETSSSKPDCWLSEEAMRLSSGPLPQPLGPLTPDSDIHSGDALPRIPINMQEMATPGELLETQSGSPIGSAEAPGLGTVLEDQIPKGARPFPPLPKRSSNNGGMSAEEEIGSGAEPMRGPSLATRDWRDETVGTTDLQQGIDPGAVSPEPGKDHAAQGPGRTEAGRLSSAAEAAIVVLDDSAAPPAPFEHRVVSIKDTLISAGYTVSQHEVLGGGRFGQVHRCTERSTGLALAAKIIKVKNVKDREDVKNEVNIMNQLSHVNLIQLYDAFESKSSFTLIMEYVDGGELFDRITDEKYHLTELDVVLFTRQICEGVHYLHQHYILHLDLKPENILCVSQTGHQIKIIDFGLARRYKPREKLKVNFGTPEFLAPEVVNYEFVSFPTDMWSVGVITYMLLSGLSPFLGETDAETMNFIVNCSWDFDADTFKGLSEEAKDFVSRLLVKEKSCRMSATQCLKHEWLSHLPAKASGSNVRLRSQQLLQKYMAQSKWKKHFHVVTAVNRLRKFPTCP
- in vitro kinase assay, incorporation of 32P [1]: promotes incorporation of ^32P to GST-MLC2v and GST-MLC2a fusion proteins
- Km (Lineweaver-Burk plot, 32P incorporation into GST-MLC2v; with Ca2+/calmodulin) [2]: 3.9±1.2 (with Ca^2+/calmodulin)
- Km (Lineweaver-Burk plot, 32P incorporation into GST-MLC2v; with EGTA) [2]: 2.9±0.8 (with EGTA)
- Km (Lineweaver-Burk plot, 32P incorporation into GST-MLC2v; without EGTA and Ca2+/calmodulin) [2]: Km value of 4.3±1.5 µM
- in vitro kinase assay, incorporation of 32P [2]: promotes incorporation of ^32P to GST-MLC2v and GST-MLC2a fusion proteins
